Results on 1 molecule are retold here after patent CN116425870A (UNIV SHAANXI NORMAL, dated 2023).

The experiment deals with T1, SARS-COV-2病毒N蛋白 (SARS-COV-2, UniProt P0DTC9 1-419).
T1 construct: also called 新型冠状病毒N蛋白; SARS-COV-2N蛋白
Put plainly: ELISA, N protein coated 100 ng/well, supernatant of transfected Expi293F cells. On the technique in general: ELISA stands for enzyme-linked immunosorbent assay.

B1: 31A8抗体重链31A8mG1 (heavy chain transfected alone) (other)
VH: EVQLQQSGPELVKPGASVKISCKTSGYTFTKYTMHWVKQSHGKSLEWIGGINPNNGGNSYNQKFKGKATLTVDKSSSTAYMELRSLTSEDSAVYYCATPDYWGQGTTLTVSS
For the molecule B1, the binding result was “no binding”.
